Data taken from the supplement of paper PMC7125110.
± gives the standard error. For some of these results: This sample holds only a part of the variants without activity.

B1: glmS ribozyme (parent)
chain: AUAAAAGCGCCAGAACUACAGAAAUGUAGUUGACGAGGAGGAGGUUUAUCGAAUUUUCGGCGGAUGCCUCCAAA

How the values were obtained:
Settings in all cases: with glucosamine-6-phosphate
glucosamine-6-phosphate [1] = variants of: B1; experiment: kcat; higher = faster cleavage; RNA array
In short: (§1)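 Barcoded ribozyme variants, transcribed in situ by E. coli RNA polymerase on sequenced MiSeq chips, were followed via a hybridised Cy3 probe at 37 °C. Glucosamine-6-phosphate ranged from 40 μM to 10 mM in HEPES/KCl/Mg(OAc)2 buffer. kobs came from decay fits to per-tile medians, and kcat and KM from weighted Michaelis–Menten fits.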

glucosamine-6-phosphate [2] = variants of: B1; experiment: KM; higher = weaker cofactor use; RNA array
In short: as §1

glucosamine-6-phosphate [3] = variants of: B1; experiment: self-cleavage kobs at 40 uM GlcN6P; higher = faster cleavage; RNA array
In short: as §1

glucosamine-6-phosphate [4] = variants of: B1; experiment: self-cleavage kobs at 160 uM GlcN6P; higher = faster cleavage; RNA array
In short: as §1

glucosamine-6-phosphate [5] = variants of: B1; experiment: self-cleavage kobs at 640 uM GlcN6P; higher = faster cleavage; RNA array
In short: as §1

glucosamine-6-phosphate [6] = variants of: B1; experiment: self-cleavage kobs at 2500 uM GlcN6P; higher = faster cleavage; RNA array
In short: as §1

glucosamine-6-phosphate [7] = variants of: B1; experiment: self-cleavage kobs at 10000 uM GlcN6P; higher = faster cleavage; RNA array
In short: as §1

Row | Variant | kcat (glucosamine-6-phosphate [1]) [s⁻¹] | KM (glucosamine-6-phosphate [2]) [µM] | self-cleavage kobs at 40 uM GlcN6P (glucosamine-6-phosphate [3]) [s⁻¹] | self-cleavage kobs at 160 uM GlcN6P (glucosamine-6-phosphate [4]) [s⁻¹] | self-cleavage kobs at 640 uM GlcN6P (glucosamine-6-phosphate [5]) [s⁻¹] | self-cleavage kobs at 2500 uM GlcN6P (glucosamine-6-phosphate [6]) [s⁻¹] | self-cleavage kobs at 10000 uM GlcN6P (glucosamine-6-phosphate [7]) [s⁻¹]
1 | C8A G37C G38A C70U | 1.14e-05 ± 3.5e-06 | – | – | – | – | – | –
2 | G13U U47A | 0.00106 ± 0.00021 | 4310 ± 1300 | 2.95e-05 ± 1.5e-05 | 3.53e-05 ± 1.3e-05 | 0.000144 ± 1.5e-05 | 0.000332 ± 5e-05 | 0.000776 ± 8.7e-05
3 | U46G U69G | 7.96e-05 ± 5.9e-06 | – | 5.51e-05 ± 9.4e-06 | 7.35e-05 ± 1.7e-05 | 0.000111 ± 1.6e-05 | 7.44e-05 ± 1.1e-05 | 7.71e-05 ± 5.3e-06
4 | G43U U55C | 3.2e-05 ± 2.4e-06 | – | – | – | – | 3.2e-05 ± 1.2e-05 | 3.01e-05 ± 8.7e-06
5 | U55C U69C | 0.00119 ± 0.00046 | – | – | – | 6.77e-05 ± 2.8e-05 | 0.000177 ± 2.6e-05 | 0.000523 ± 0.00012
6 | G35A C50G U69A | 0.000277 ± 5.3e-05 | – | 0.000149 ± 3.4e-05 | 0.000465 ± 0.00015 | 0.000501 ± 0.00021 | 0.000206 ± 7.8e-05 | 0.000278 ± 5.3e-05
7 | G13U G29U U31C | 1.48e-05 ± 3.5e-06 | – | < 1e-05 | – | – | – | –
8 | A39G G41C | 4.55e-05 ± 7.4e-06 | – | < 1e-05 | – | – | 5.57e-05 ± 1.5e-05 | 3.84e-05 ± 1.2e-05
9 | G40U G41U | 8.36e-05 ± 7.4e-06 | 901 ± 330 | < 1e-05 | – | 2.92e-05 ± 8e-06 | 7.1e-05 ± 8.5e-06 | 7.34e-05 ± 7e-06
10 | A14C U31G G40C | 0.00179 ± 0.00038 | 1560 ± 520 | 5.2e-05 ± 1.1e-05 | – | 0.000477 ± 9.7e-05 | 0.00097 ± 0.00023 | 0.00184 ± 0.00041
11 | U49G U54A | 0.00122 ± 0.00034 | 3170 ± 1400 | – | 9.47e-05 ± 2.3e-05 | 0.000176 ± 3.6e-05 | – | 0.000941 ± 0.00014
12 | G13U C70A | 3.03e-05 ± 5.4e-06 | – | – | – | 3.7e-05 ± 1.1e-05 | 3.54e-05 ± 9.8e-06 | 2.01e-05 ± 1e-05
13 | G29U U45A | 0.0141 ± 0.0034 | 2740 ± 820 | 0.000225 ± 4.9e-05 | 0.000796 ± 0.00018 | 0.00237 ± 0.00044 | 0.00765 ± 0.0017 | 0.0103 ± 0.005
14 | U31C G59U C68A | 3.76e-05 ± 1.6e-05 | – | – | – | – | – | –
15 | U56A C71A | 0.00492 ± 0.0022 | – | 9.35e-05 ± 1.1e-05 | 0.000174 ± 3.4e-05 | 0.000881 ± 0.0001 | 0.00216 ± 0.00042 | 0.00398 ± 0.00071
16 | A15G U57C | 0.000143 ± 1.4e-05 | 2200 ± 520 | – | – | 2.79e-05 ± 9.6e-06 | 8.09e-05 ± 1.2e-05 | 0.000113 ± 1.7e-05
